The series is described as follows: soluble on expression in E. coli; label from the status in PepcDB or PDB records.
Turning to “MTFSKSTTDKPSYTYEELSVKNKAYVWHPFTQMKDYLEEDPVIIERGEGRKLYDVNGNEYWDGVSSIWLNVHGHQVPELDEAIREQLNKIAHSTMLGLANVPSILLAEKIIEVVPEGLKKVFYSDSGSSAVEIAIKMAFQYWQHKGKPKKQRFVTLKEAYHGDTIGAVSVGAIDLFYQVYSSLLFEAIKMPYPYTYRSPYGNDKAEIVKKHLEEMEELLKDKHEEIAAIIVEPLMQGAGGMITMPKGYLRGLRNLCTKYNVLFITDEVATGFGRTGKMFACEHENVTPDILTAGKGLTGGYLPVAITVTTDEIYNAFLGSYEEQKTFFHGHSYTGNPLGCAVAIANLELYEKTNLIEEVARKTEYVATQLEELFACKHVGDIRQCGLMVGIELVKNKETKEAFEWTERVGVQVCKRSRELGMILRPLGNTIVFMPPLASTIDEIDEMLRILYKAISDITEGE”, the “soluble on expression in E. coli” value is “not soluble”.

In the case of “MSAEVTLHDNIHYDLSADCQHCFGLCCVALPYAKSADFAFDKDGGTPCRNLQSNYQCSIHKDLREKGFRGCSAYECFGAGQKVSQITYEGKDWRNSPETANQMFDVFPIMQQLHEMLWYLHEALSIDIAKPIHSELRTTFEKIERLTRLSKERLLTLQVDEHRAEVNEWLLKTSELVRAQARHPKLPKKVSRGSVLIGAKLKGLDLRGANLRGALLIAADLRNADLRMTDFIGADMRDADLSGADLTGSIFLTQAQVNAANGDSNTKLPLSVRTPAHWKLEHHHHHH”, the “soluble on expression in E. coli” value is “not soluble”.

As to “QQKRAFEYEIRFYTGNDPLDVWDRYISWTEQNYPQGGKESNMSTLLERAVEALQGEKRYYSDPRFLNLWLKLGRLCNEPLDMYSYLHNQGIGVSLAQFYISWAEEYEARENFRKADAIFQEGIQQKAEPLERLQSQHRQFQARVSRQTLLALEKEEEEEVFESS”, the “soluble on expression in E. coli” value was “soluble”.

Regarding “AVPIAQKSEPHSLSSEALMRRAVSLVTDSTSTFLSQTTYALIEAITEYTKAVYTLTSLYRQYTSLLGKMNSEEEDEVWQVIIGARAEMTSKHQEYLKLETTWMTAVGLSEMAAEAAYQTGADQASITARNHIQLVKLQVEEVHQLSRKAETKLAEAQIEELKQKTQEEGEERAESEQEAYLRED”, the “soluble on expression in E. coli” value is given as “soluble”.

With “MEFKVTLTTEEIVRGLKHYRRIAKQDVLRAPETPNPEVFRRHAEARREVYAKLAEVAEREGPEAAVAYALELYRSLPFVTGTPEDQYPEIKGQENALENFFLMIGLDPKVRREARKARKPLQ”, the “soluble on expression in E. coli” value is given as “soluble”.

Regarding “MPLAVLERDGSFLGVLTPHSIVEVLLERERRLLEDARKINAEIRREADKAIEQLDIKAHYDTVTGLPNRQLFCDRLLQALAAHERDGNPVVLLFLDVDNFKSINDSLGHLVGDRLLRATAERIRTAVRDGDTVARIGGDEFTILLNGAKDTLNGALVAQKILDGLAQPFVFGAQQIVISVSIGIAVSPADGETMEQLLRNADTAMYHAKSRGKNNYQFFSPELNVQAYRRQEIERNLRCALLQGELGLRYAPRVDLRSGRIVALEVCPFWLSSELGDVPPDDFIPVAEETGLIVQIGIWAFRTACAHAAVWRTQGLADRCLSFRLSQRELDDPQFGDRIMSLLDGCGLEPENLQFELSERMLMTHAAHTLAVLQELSNRGIRFSVGDFGTGNASLRRLRRFPIDELKIDLSSVRDIEPDSDDAAVITAMIAMAKSLRMDVVAVGVETPEHVAFLLERGCRHGQGRLIGARLPPERIAALLAGDAVDLFVALEHHHHHH”, the “soluble on expression in E. coli” value was “not soluble”.

Consider “VQRCVIIQKDQHGFGFTVSGDRIVLVQSVRPGGAAMKAGVKEGDRIIKVNGTMVTNSSHLEVVKLIKSGAYVALTLLGSS”, for which the “soluble on expression in E. coli” value is reported as “soluble”.

Take “MGSDKIHHHHHHMDIRSLKMYLHLCDSLHFAKTAEQSHVSPSTLSRALQRLEDEVGSKLFDRDNRSVTITHAGVEFKRFAEQTLSEWTQLRSRIDPSQQFLRGNLNLYCSVTAAYSHLPALLDRFRREHPHVDINLNTGDPANAVNQIQKNRADIAIIALPEAFPSSLHFTPIDKVPISVIAPTIQCQVQQWVSQAKIDWAKLPYIVPDHGPGRKRIDLWFKQMGIKPNIYAQVSGQEAIVSMVALGCGVGISPEAVIHNSPVRDRIQTLASPIPIPPFELGCCCKEKRTNDPIIRAFLDII”: the “soluble on expression in E. coli” value was “not soluble”.

Regarding “MGSDKIHHHHHHALSSDYFTTTPQVLEAVGGKVPVTINGKFPEKYFKKNAVVEVTPVLKWEGGQVKGQPAVFQGEKVEGNDQTISYKMGGNYTMKTTFDYVPEMAKSELYLEFNAKVGKKTIAIPAVKIADGVISTSELINNTLSSANPALGDDAFQRIIKEAHNANIMFLIQQANIRSSELKTAKEFNKEVANVNDAENKKISNIEISAYASPDGGVKLNTGLAENREGNTTKLINKDLKKAKIEVPVDAKYTAQDWEGFQELVSKSNIQDKELILRVLSMYQDPEQRETEIKNISSVYKTLADEILPQLRRSRLTLNYEIIGKSDEEIANLAATDPKQLNVEEILYAATLTNDPAKKADIYTKASQQFPNDYRAFNNLGKLAYQAGDLDKAQSYVKKAESIKSAPEVNMNLGLIALAKGDKAAAESYLGKAAGAKELNETLGNLYVAQGQYERAVNAFGDTKTNSAALAQILAKDYNKAKNTLAGIATPDAYTDYLMAVLGARTNNTSMLTSSLKSAVAKNPALAKKAATDLEFAKYYTNADFMSIVK”, the “soluble on expression in E. coli” value is recorded as “not soluble”.

On to “LSKPKLAVVGARKCSETGKQSVRKIVHELGNAFTIVSGLARGIDTCAHMEALKNKGNTIAVIGTGLDVYYPKENKALQDYMAKNHLVLTEYGPGEQPLKYHYPERNRIISGLCQGVMVVEAKLRSGSLITCERAMEEGRDVFAIPGNILDGKSDGCHHLIQEGAKCITTGFDIISEFS”, for which the “soluble on expression in E. coli” value is “not soluble”.

In the case of “MGSDKIHHHHHHMPGASPWRALVGGVKGQPQGTGMDRIGPAERPILSEGAKRVTADLLQTINTIYDCVGDELDHHRCLAAIGEAVDGTSLSVGEVFPFFGRIRLIANYCVPEDAARIMVDSFSTIESNSFMKNLPRFPEGVPFMRRTFVSDEEHYQSDIYKLASEPWGLHSEGATIFSKSIVSAKFCGFFRLPGKAELDIHDLSKLAILNGHYMKAMKFQDRISGLETALLRANNVLDLLDFGLLLFGDQKSPLYVNQAAHRILEKSDVMSLGRDGLIFSSSKSQNHYEKIFSSVVGSRSSPTKGTGGLVQVSPASFRRPYNVVVQPISSHQTGVADATIGVLIFDPNAKRTTAIELFSTSYGLTKKETQLALHLAEGLSVDEYAKSHNVSINTVRTHVRSIYEKTNTTRQPELVSLILRLTAGLNWT”, the “soluble on expression in E. coli” value was “not soluble”.

Take “MAHHHHHHMYRSSGELRKYAQCVFALYCLDDGLSISRFRLAWYVLWGKWPEESVVQMLFDKKDKSTGGNEDPTGEEGGIVGSGGLAEKDKHHDGGTPLAQSFPFSALRRRINEKEFVRFAVTYHDTMGADAVGFGVTEEDGEYATVDMQSAFSGVVRARHWLQFHALAGSKGYVTLDDLIATEKVDWLYPPMSGGSASGLMVEQAGDDSSTMPQDDVDRRLAVLSHVFAIIDGDHDGKLNFEDVTRHLAKTA”: the “soluble on expression in E. coli” value is listed as “not soluble”.

For “MSLANAIRRSIPKLNRALVLPAFRSFHDEFSSKIPLEDIRKQTKGKEQHVPSARSIAAKYQVFRDTDAPVILDVDEERQIHEAGLQQPEKIHDLPDMYSGINLSRGKTGVYEIEDLVTVLRLNSAINIFVCTVPKDIKYVDYMCIVTGRSVRHMRGMAEFVRKVFKMKRHPSDIIPKIEGESSSDWMALDLGNIALHIFSTKAREQYDLESLWSVGSEFDREYNKPSEELVQLFEKHTIYLDDLKPLKKEGHHHHHH”, the “soluble on expression in E. coli” value was “not soluble”.

Take “MSEAIGLIETVGLVAAIEAADAAVKAANVKLIGYELARGSGLTTVKIKGDVGAVKAAVEAGKAAALRVGKVYAVHIIPRPDKQVGFIVGEEKNLTLLMPVIEKEEKEKNDSEPKIKVTEGETIEKREIEQKFEKEDKSEAKEETGEVEEEDDKEGMAYTCNLCKDPGCPRKKGEPRTLCIHYNELKMR”: the “soluble on expression in E. coli” value was “not soluble”.

On to “MGSDKIHHHHHHENLYFQGMRFLAYFGHLNIDVLISVDSIPREGSVNVKDLRPRFGGTAGNFAIVAQKFRIPFDLYSAVGMKTHREYLAMIESMGINTGHVEKFEDESGPICYIATDGKKQVSFMHQGAMAAWAPQLADEYEYVHFSTGPNYLDMAKSIRSKIIFDPSQEIHKYSKDELKKFHEISYMSIFNDHEYRVFREMTGLSSPKVTTIVTNGERGSSLFMDGKKYDFPAIPSSGDTVGAGDSFRAGLYLALYNRRSIEKGMIYGTIIAHHVIDDGIENFSLNMEDLERETENYRRMFTKRS”, for which the “soluble on expression in E. coli” value is on record as “soluble”.

“MVHHKLKNDPSGHDWFHIVRVRNLAVELAHKEGANTFICQMAALLHDIIDDKICQDSKQASYELTQWLYSQDLAIAEVEHILDILENISFKAGTGLTMKTLEGQIVQDADRLDAMGAIGIARTMAYSGSKGRLIHDPNLKPRENLTLEEYRNGQDTAIIHFYEKLLKLKDLMNTKQGKMLAQKRHDFLELYLAEFYAEWNGKRLEHHHHHH”: the “soluble on expression in E. coli” value was “not soluble”.

Regarding “MGSDKIHHHHHHMDVWLQLLQAEPELRSLTDWNRLATRYTDSPKYTARDASGVFIIHTAPLASLARKKREFELLQQLRHDGLPVPEPLDLKQISATAVCYSRYRFLTGKTIQACLPLCRDKAYRLGQETGRLLQWIHQHEVPRATEWAIRCLEKHKRYVALYQAERPLTDDSIILSFIERNIHLIAGRPNRLQHDDVHLGNLITDGEHLVGLIDFSNHDVGDPWHDFVKMGLFQVDDSIPFAVGQVDGYFARDVPELFWRVYSVYLAMACISSIVWTSRHAPEETDQMRRRFECAVPIWYATFDRT”, the “soluble on expression in E. coli” value is given as “not soluble”.

On to “MTMDLRTGLAALALAAGLALPAAPALAEMSEITIARQPSIGHLPLMIMQERRLIETMAEAEGLGEVKVNYATFAGGSNMNDALLSNTIQFAAGGVPPLILLWSKTAGTSNEVKGVAAMNSMPLLMNVNREDIRSIEDFKPGDKIALPSVKVSVQAMVLQMAAAKIWGDENYGKLDPLTVSMSHPDGLAALLARQEVTAHFTASPAQDMALREPGVHTVLNSFDVMGGPVTFNVVWTTKAFHDDNPKLFDIFRRALAQAVEVVNEDPAEAVQVYLRQAGNATDPELLASILADPQVDYTVEPSGIDKYLDFMRRIGTVKDNGQPWEAMFFE”, for which the “soluble on expression in E. coli” value is “not soluble”.

For the sequence “MSTKTMKEKAVELLQKCEVVTLASVNKEGYPRPVPMSKIAAEGISTIWMSTGADSLKTIDFLSNPKAGLCFQEKGDSVALMGEVEVVTDEKLKQELWQDWFIEHFPGGPTDPGYVLLKFTANHATYWIEGTFIHKKLD”, the “soluble on expression in E. coli” value is recorded as “soluble”.

For the sequence “MMHYDGMYYINEEEVRSNLTMKDTIDAIREAFEEYRAGRASSNTRVRTFSEGSVLNTMPASMEKYHILGHKTYSASRNGARFVVTLFDSRNNDLIAIVEANRLGQMRTGAVTAYATSILHPHVENFTIIGSGFQAETQLEGMITVSHPQSIRVYSRNYDHAKDFASRMSKQFGVDIRPVDNAEAALSDADTVSSITNSTSPVILRKYLGDEYHVNLAGSNYMNRREAEYEVLHDADLVVTEHYDQSMVESAEISEYVKFGGKPVELREIAGRYGEFSGLRRTVFKSMGIGLEDIATAYRVLRNLGIA”, the “soluble on expression in E. coli” value is listed as “soluble”.

For “QVQLQESGPGLVRPSQTLSLTCTVSGFSLTGYGVNWVRQPPGRGLEWIGMIWGDGNTDYNSALKSRVTMLKDTSKNQFSLRLSSVTAADTAVYYCARERDYRLDYWGQGSLVTVSSG”, the “soluble on expression in E. coli” value was “soluble”.

For “MGSDKIHHHHHHMDPRHRRGARLRHHQRDVARGGSVPARRQAHRRVARGLGEPVFVTHLVFFCGHAGTGKTTLAKRLIGPLMRATGEAFCLLDKDTLYGRYSSAAMGALTSDPNDRDSPLYLKHLRDPEYQGLLDTARENLALGIGALVVGPLSREVRDRRILDRAWLGIGPEIALTVVWVHTAEDVAHQRIVARGNPNDAYKLAHWDEYRQRRFVPTGHECDGIVMFDNTAPSDADIDALLYRIVPPAPQATMVPPLPA”, the “soluble on expression in E. coli” value is given as “not soluble”.

These data come from the DeepSol protein solubility set.
